# Measured values from the supplement of paper PMC7125110.
# ± gives the standard error. This sample holds only a part of the variants without activity.
# B1: glmS ribozyme (parent)
# chain: AUAAAAGCGCCAGAACUACAGAAAUGUAGUUGACGAGGAGGAGGUUUAUCGAAUUUUCGGCGGAUGCCUCCAAA
# Assays:
# Conditions in all cases: with glucosamine-6-phosphate
# [1] = variants of: B1; assay: self-cleavage kobs at 40 uM GlcN6P; higher = faster cleavage; RNA array
# Outline: (§1)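 A hybridised Cy3 probe tracked barcoded ribozyme variants, transcribed in situ by E. coli RNA polymerase on sequenced MiSeq chips, at 37 °C. The variants received 40 μM to 10 mM glucosamine-6-phosphate in HEPES/KCl/Mg(OAc)2 buffer. kobs came from decay fits and kcat and KM from weighted Michaelis–Menten fits.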
# [2] = variants of: B1; assay: self-cleavage kobs at 640 uM GlcN6P; higher = faster cleavage; RNA array
# Outline: as §1
# [3] = variants of: B1; assay: self-cleavage kobs at 10000 uM GlcN6P; higher = faster cleavage; RNA array
# Outline: as §1
# [4] = variants of: B1; assay: self-cleavage kobs at 2500 uM GlcN6P; higher = faster cleavage; RNA array
# Outline: as §1
# [5] = variants of: B1; assay: self-cleavage kobs at 160 uM GlcN6P; higher = faster cleavage; RNA array
# Outline: as §1
Variant,self-cleavage kobs at 40 uM GlcN6P [1],self-cleavage kobs at 640 uM GlcN6P [2],self-cleavage kobs at 10000 uM GlcN6P [3],self-cleavage kobs at 2500 uM GlcN6P [4],self-cleavage kobs at 160 uM GlcN6P [5]
AUAAAAGCGGCAGAACUACAGAAAUGUAGUUGACGAGCAGGAGGUUUAUCGAAUUUUCGGCGGAUGCCGCCAAA,< 1e-05 s⁻¹,< 1e-05 s⁻¹,–,–,–
AUAAAAGCGGCAGAACUACAGAAAUGUAGUUGACUAGGUGGAGGUUUAUCGAAUUUUCGGCGGAUGCCUCCAAA,< 1e-05 s⁻¹,–,–,–,–
AUAAAAGCGGCAGAAGUACAGAAAUGUAGUUGAUGAGGAGGACGUUUAUCGCAUCUUCGGCGGAUGCCUCCAAA,< 1e-05 s⁻¹,–,< 1e-05 s⁻¹,–,–
AUAAAAGCGGCAGAAGUACAGAAAUGUAGUUGACGAGGAUGAGGUUUAUCGAAUUUUCGGCGGAUGCCUCCAAA,< 1e-05 s⁻¹,–,–,< 1e-05 s⁻¹,–
AUAAAAGCGGCAGAACUACAGAAAUGUAGUUGACGAGGAGGAGGUUAAUCGAAUUUUCGGCGGAUGCCUCCAAA,< 1e-05 s⁻¹,< 1e-05 s⁻¹,–,–,< 1e-05 s⁻¹
AUAAAAGCGGCAGAACUACAGAAAUGUAGUUGACGAGGAGGAGGUUGAUCGAAUUUUCGGCGGAUGCCUCCAAA,< 1e-05 s⁻¹,–,< 1e-05 s⁻¹,–,–
AUAAAAGCGUCAGAACUACAGAAAUGUAGUUGCCGAGGAGGAGGUUGAUCUAAUUUUGGGCGGUUGCCUACAAA,7.66e-05 ± 2.4e-05 s⁻¹,–,0.000101 ± 2.1e-05 s⁻¹,–,–
AUAAAAGCGUCAGGACUACAGAAAUGUAGUUGACGAGGAGGAGGUUUAUCGUAUUUUCGUCGGAUGCCUCCAAA,< 1e-05 s⁻¹,–,< 1e-05 s⁻¹,< 1e-05 s⁻¹,–
AUAAAAGCGUCAGAACUACAGAAAUGUAGUUGACGAGGAGGAGGUUUAUCGCAUUUGCGGCGGAUGCCUCCAAA,< 1e-05 s⁻¹,< 1e-05 s⁻¹,< 1e-05 s⁻¹,< 1e-05 s⁻¹,–
AUAAAAGCGGCAGAACUACAGAAAUGUAGUUGACGAGGAGGAGGUUUAUGGAAUUUUCGGCGGAUGCCUCCAAA,5.37e-05 ± 1.8e-05 s⁻¹,0.00026 ± 4.4e-05 s⁻¹,4.6e-05 ± 1.1e-05 s⁻¹,9.17e-05 ± 2.1e-05 s⁻¹,0.000187 ± 3.5e-05 s⁻¹
AUAAAAGCGGCAGAACUACAGAAAUGUAGUUGACGAUGAGGCGGUUUAUCGAAUUUUCGGCGGAUGCCUCCAAA,< 1e-05 s⁻¹,–,–,–,–
AUAAAAGCGGCAGAACUACAGAAAUGUAGGUGACGAGGAUGAGGUUUAUCGAAUUUUCGGCGGAUGCCUCCAAA,< 1e-05 s⁻¹,–,–,–,–
AUAAAAGCGGCAGAACUACAGAAAUGUAGUUGACGAGGAGGAGGUUUAUCGAAUGUUCGGCGGAUGCCUCCAAA,< 1e-05 s⁻¹,–,–,–,–
AUAAAAGCGGCAGAACUACAGAAAUGUAGUUGACGACGAGGAGGUUAAUCGAAUUUACGGCGGAUCCCUGCAAA,< 1e-05 s⁻¹,–,< 1e-05 s⁻¹,–,–
AUAAAAGCGGCAGAACUACAGAAAUGUAGUUGAAGAGGAGGAGGUUUCCCGAAUUUUCGGCGGAUGCCUCCAAA,< 1e-05 s⁻¹,–,–,–,–
AUAAAAGCGGCAGAACUACAGAAAUGUAGUUGACGAGGAGGAGGUUUAUGGAAUUUUCGGCGAAUGCCUCUAAA,6.86e-05 ± 1.9e-05 s⁻¹,–,5.34e-05 ± 1.7e-05 s⁻¹,–,–

Variant,self-cleavage kobs at 40 uM GlcN6P [1],self-cleavage kobs at 640 uM GlcN6P [2],self-cleavage kobs at 10000 uM GlcN6P [3],self-cleavage kobs at 2500 uM GlcN6P [4],self-cleavage kobs at 160 uM GlcN6P [5]
AUAAAAGCGGCAGAACUACAGAAAUGUAGUUAACGAGGAGGAGGUUUAUCGAAUUUUCGGCGGAUGCCUCCAAA,< 1e-05 s⁻¹,–,< 1e-05 s⁻¹,–,–
AUAAAAGCGUCAGAACUACAGAAAUGUAGUUGUCGAGGAGGAGGUUUAUCGUAUUUUCGGCGGAUGCCUCCAAA,< 1e-05 s⁻¹,< 1e-05 s⁻¹,< 1e-05 s⁻¹,–,–
AUAAAAGCGUCAGAACUACAGAAAUGUAGUUGACGGGGAGGAGGUUUAUCGAAUUUUCGGCGGAUGCCUCGAAA,< 1e-05 s⁻¹,–,< 1e-05 s⁻¹,–,–
AUAAAAGCGGCAGAACUACAGAAAUGUAGUUGACGAGGAGGAGGUUUAUCGAAUUUUCGGCGCAUGCCUCCAAA,< 1e-05 s⁻¹,< 1e-05 s⁻¹,–,< 1e-05 s⁻¹,< 1e-05 s⁻¹
AUAAAAGCGGCAGAACUACAGAAAUGUAGUUCACGAGGAGGAGGUUUAUCGAAUUUACGGCGGAUGCCUCCAAA,< 1e-05 s⁻¹,–,–,–,–
AUAAAAGCGGCAGAACUACAGAAAUGUAGUUGACGAGGAGGAGUUUUAUCGAAUUUUCGGCGGAUGCUUUCAAA,< 1e-05 s⁻¹,–,< 1e-05 s⁻¹,–,–
AUAAAAGCGGCAGAACUACAGAAAUGUAGUUGACGAGGACGAGGUUUAUCGAAUUUUCGGCGGAUGCCUGCAAA,< 1e-05 s⁻¹,< 1e-05 s⁻¹,< 1e-05 s⁻¹,< 1e-05 s⁻¹,< 1e-05 s⁻¹
AUAAAAGCGGCAGAACUACAGAAAUGUAGUUGACGAGUAGGAGGUUUAUCGAAUUUUCGGCGGAGGCCUCCAAA,< 1e-05 s⁻¹,–,< 1e-05 s⁻¹,–,–
AUAAAAGCGGCAGAACUACAGAAAUGUAGUUGACGAAGAGGAGGUUUAUCGAAUUUUCGGCGGAUGCCUCCAAA,< 1e-05 s⁻¹,< 1e-05 s⁻¹,< 1e-05 s⁻¹,–,< 1e-05 s⁻¹
AUAAAAGCGGCAGAAGUACAGAAAUGUAGUUGACCAGGCGGAGGUUUAUCGAAUUUUCGGCGGAUGCCUCCAAA,< 1e-05 s⁻¹,–,< 1e-05 s⁻¹,–,–
AUAAAAGCGGCAGAACUACAGAAAUGUAGUUGACGAGGAGGAGGUUUAUCCAAUUUUAGGCGGAUGCCUCCAAA,< 1e-05 s⁻¹,< 1e-05 s⁻¹,< 1e-05 s⁻¹,–,–
AUAAAAGCGGCAGAACUACAGAAAUGUAGUUGACGAGGAGCAGGUUUAUCGAAUUUUCGGCGGAUGCCUCCAAA,< 1e-05 s⁻¹,< 1e-05 s⁻¹,< 1e-05 s⁻¹,< 1e-05 s⁻¹,< 1e-05 s⁻¹
AUAAAAGCGGCAGAACUACAGAAAUGUAGUUGACGAGGAGGAAGUUUAUCGAAUUUUCGGCUGAUGCCUCCAAA,< 1e-05 s⁻¹,< 1e-05 s⁻¹,–,–,–
AUAAAAGCGGCAGAACUACAGAAAUGUAGUUGACAAGGAGGAGGUUUAUCGAAUUUUCGGCGGAUGCCUCCAAA,< 1e-05 s⁻¹,< 1e-05 s⁻¹,–,–,< 1e-05 s⁻¹
AUAAAAGCGUCAGUAGUACAGAAAUGUAGUUGACGAGGAGGAGGUUUAUCGAAUUUUCGGCGGAUGCCUCCAAA,< 1e-05 s⁻¹,–,–,–,–
